Measured values published in paper PMC10099132, “Sequence and Structural Motifs Controlling the Broad Substrate Specificity of the Mycobacterial Hormone-Sensitive Lipase LipN” (ACS Omega, 2023).

Assays:
Test in all cases: purified protein, by the assay type
Set-up in all cases: p-nitrophenyl ester hydrolysis, absorbance at 412 nm, Michaelis-Menten fit
[1] = substrate: CCCCCCCC(=O)Oc1ccc([N+](=O)[O-])cc1
Text: (§1) (A) Classic p-nitrophenyl ester substrates were used as conformation for fluorogenic substrate measurements (Figure 1). (B) Catalytic efficiency comparison of MmLipN against p-nitrophenyl substrates. Catalytic efficiency values (kcat/Km) are given ± SD. (C, D) Kinetic activity of MmLipN against (C) short alkyl ester substrates: p-nitrophenyl acetate (C2) and p-nitrophenyl butyrate (C4) and (D) longer alkyl ester substrates: p-nitrophenyl valerate ([…]), p-nitrophenyl octonoate (C8), and p-nitrophenyl myristate (C14). Data points were fitted to the Michaelis–Menten equation and are shown ± SD.

[2] = substrate: CC(=O)Oc1ccc([N+](=O)[O-])cc1
Text: as §1

[3] = substrate: CCCCCCCCCCCCCC(=O)Oc1ccc([N+](=O)[O-])cc1
Text: as §1

[4] = substrate: CCCCC(=O)Oc1ccc([N+](=O)[O-])cc1
Text: as §1

B1: MmLipN (LipN from M. marinum) (Mycobacterium marinum M) (protein)
chain: MTNSLPGETDLHPETVHATMSWLSRVQNTVTVVGAKVIPWVPDVAKRLITRGRSVIIDGNTLDPALQLMLSGMRVVGLDGLVIDDDLAASRAHMREAMLGFPGPQIHVDVEELTLPGPAGDISARHYRPPGDAAAPLLVFYHGGGWALGDLDTHDAVCRLTCRDAGIHVLAIDYRLSPEDRAPAAIDDAFAAFEWAHAHAAELGALPGRVAVGGDSAGGNLAAVVSQLARDSGGPAPIFQWLIYPRTDFAGRTRSASLFARGFLLTKRDIDWFHSQYLKGSGIEPTDPRVSPLRAESLAGLAPALIAVAGFDPLRDEGENYATALRAAGTPVDLRAMGSLTHGFLNLFPLGGGCAAATSELISALRAHLTRV
notes: E. coli LOBSTR (DE3); Ni-NTA
Work on B1 yielded a Km [1] of 410 ± 330 µM, a kcat [1] of 1.1 ± 0.2 s⁻¹ and a kcat/Km [1] of 2700 ± 1100 M⁻¹ s⁻¹. The Km [2] was 2400 ± 1200 µM, the kcat [2] was 94 ± 8 s⁻¹ and the kcat/Km [2] was 39000 ± 10000 M⁻¹ s⁻¹. For the same protein, the Km [3] was 120 ± 50 µM, the kcat [3] was 0.28 ± 0.02 s⁻¹ and the kcat/Km [3] was 2300 ± 400 M⁻¹ s⁻¹. For the same protein, the Km [4] was 250 ± 70 µM, the kcat [4] was 15 ± 1 s⁻¹ and the kcat/Km [4] was 59000 ± 8000 M⁻¹ s⁻¹.
